# Experimental data as given in publication PMC12588321, “Congenital heart disease missense mutations in the TBX5 DNA-binding domain alter thermal stability and DNA-binding affinity”.
# T1: TBX5 T-box domain R113K (human? (UniProt Q99593 used for …, UniProt Q99593 48-248, R113K))
# T1 sequence: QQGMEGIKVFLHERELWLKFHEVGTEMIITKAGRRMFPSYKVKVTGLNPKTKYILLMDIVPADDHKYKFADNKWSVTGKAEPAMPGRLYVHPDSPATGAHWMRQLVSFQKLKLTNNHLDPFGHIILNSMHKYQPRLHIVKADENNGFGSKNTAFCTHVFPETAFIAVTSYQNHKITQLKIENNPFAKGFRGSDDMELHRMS
# T2: TBX5 T-box domain I54T (human? (UniProt Q99593 used for …, UniProt Q99593 48-248, I54T))
# T2 sequence: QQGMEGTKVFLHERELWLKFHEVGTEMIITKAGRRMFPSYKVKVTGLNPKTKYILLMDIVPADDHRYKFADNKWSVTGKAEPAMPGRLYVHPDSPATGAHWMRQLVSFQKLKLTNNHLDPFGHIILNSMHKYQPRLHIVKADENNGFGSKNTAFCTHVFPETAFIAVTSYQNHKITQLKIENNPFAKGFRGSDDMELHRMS
# T3: TBX5 T-box domain M74V (human? (UniProt Q99593 used for …, UniProt Q99593 48-248, M74V))
# T3 sequence: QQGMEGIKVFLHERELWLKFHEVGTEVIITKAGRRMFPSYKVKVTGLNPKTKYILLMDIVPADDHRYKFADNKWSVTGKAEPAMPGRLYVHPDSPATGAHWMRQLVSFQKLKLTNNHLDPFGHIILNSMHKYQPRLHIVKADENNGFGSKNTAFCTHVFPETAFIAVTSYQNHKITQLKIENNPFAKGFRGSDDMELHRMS
# T4: TBX5 T-box domain R237W (human? (UniProt Q99593 used for …, UniProt Q99593 48-248, R237W))
# T4 sequence: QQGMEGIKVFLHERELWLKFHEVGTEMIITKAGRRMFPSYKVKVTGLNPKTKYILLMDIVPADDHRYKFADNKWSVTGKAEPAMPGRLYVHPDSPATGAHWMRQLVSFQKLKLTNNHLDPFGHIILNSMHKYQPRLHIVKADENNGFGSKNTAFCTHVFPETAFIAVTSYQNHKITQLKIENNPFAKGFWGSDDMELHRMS
# T5: TBX5 T-box domain I101F (human? (UniProt Q99593 used for …, UniProt Q99593 48-248, I101F))
# T5 sequence: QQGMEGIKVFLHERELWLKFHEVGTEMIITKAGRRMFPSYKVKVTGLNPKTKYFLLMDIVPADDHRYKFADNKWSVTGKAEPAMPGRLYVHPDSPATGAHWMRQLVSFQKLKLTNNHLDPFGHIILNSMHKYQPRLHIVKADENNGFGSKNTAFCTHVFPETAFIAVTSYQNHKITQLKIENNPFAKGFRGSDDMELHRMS
# Key:
# Assay in all cases: EMSA; EMSA: 50 mM NaCl, 10 mM Tris-HCl pH 8.0, 10% glycerol; protein 0-2000 nM; 30 min at 30 °C then 30 min at room temperature; 6% native PAGE in 0.5x TBE; 3 replicates
# Conditions in all cases: protein: recombinant; tags: N-terminal Strep-Tag II, C-terminal 10xHis; label: IRDye 700
# TBX5 T-box domain R113K = molecular target: T1, TBX5 T-box domain R113K
# TBX5 T-box domain I54T = molecular target: T2, TBX5 T-box domain I54T
# TBX5 T-box domain M74V = molecular target: T3, TBX5 T-box domain M74V
# TBX5 T-box domain R237W = molecular target: T4, TBX5 T-box domain R237W
# TBX5 T-box domain I101F = molecular target: T5, TBX5 T-box domain I101F
Binder,binding signal (TBX5 T-box domain R113K),binding signal (TBX5 T-box domain I54T),binding signal (TBX5 T-box domain M74V),binding signal (TBX5 T-box domain R237W),binding signal (TBX5 T-box domain I101F)
Nppa (ANF) promoter probe (dsDNA) DNA 1: CCCGGTTTTGTGATTCTCTCTCTCACACCTTCAGCAGGAACGTGCCAATGCCGCCGTAAG DNA 2: CTTACGGCGGCATTGGCACGTTCCTGCTGAAGGTGTGAGAGAGAGAATCACAAAACCGGG,-2.87 fold change in Bmax vs WT,-1.65 fold change in Bmax vs WT,-3.27 fold change in Bmax vs WT,-3.76 fold change in Bmax vs WT,-1.26 fold change in Bmax vs WT
Camta1 promoter probe (dsDNA) DNA 1: GCAGATCTCCTGCTGGGCTGACACCTCACTATCGCAGAACCGTGCCAATGCCGCCGTAAG DNA 2: CTTACGGCGGCATTGGCACGGTTCTGCGATAGTGAGGTGTCAGCCCAGCAGGAGATCTGC,-1.49 fold change in Bmax vs WT,-1.34 fold change in Bmax vs WT,-2.93 fold change in Bmax vs WT,-10.5 fold change in Bmax vs WT,-1.38 fold change in Bmax vs WT
